The values below come from US20230270892A1, “CHELATOR COMPOSITIONS FOR RADIOMETALS AND METHODS OF USING SAME” (TRIUMF INC., priority 2020, published 2023).

Data set [1] can be described thus: DTPA challenge (transmetallation) of ^225Ac-crown-αMSH on HPLC. The conditions noted are these: addition of 1000 eq. of DTPA, in 7 hours. It counts as physicochemical.
The nature of a further data set: in vivo. Also on record: species or system mice. Conditions: male, C57BL/6J, mouse, iv, total radioactivity. As for the experimental part:
The inventors performed an in vivo evaluation to establish the biodistribution profile of ^225Ac-crown-αMSH in B16F10 tumor bearing mice. The B16F10 cell line (Mus musculus) was obtained commercially from ATCC (CRL-6475), and confirmed pathogen-free using the IMPACT 1 mouse profile (IDEXX BioResearch). The cells were cultured in DMEM media (StemCell Technologies) supplemented with 10% FBS, 100 U/mL penicillin and 100 µg/mL streptomycin at 37° C. in a humidified incubator containing 5% CO2. All animal experiments were conducted according to the guidelines established by Canadian Council on Animal Care and approved by Animal Ethics Committee of the University of British Columbia (UBC). Male C57BL/6J mice were acquired in-house and kept under pathogen-free conditions in the Animal Resource Centre at the BC Cancer Research Centre. The mice were anesthetised by inhalation of 2% isoflurane in 2 L/min oxygen, and 1 x10^6 B16F10 cells were inoculated subcutaneously at right flank. Two to four days after inoculation, the mice were transferred to the UBC Centre of Comparative Medicine, where biodistribution studies were performed once the tumors reached 8-10 mm. At the day of biodistribution mice were injected in the tail vein with ~20 kBq of ^225Accrown-αMSH (range: 10.8-31.6 kBq). After injection mice were allowed to roam freely in their cages, and they were euthanized in groups of 4 at 2 hours post injection by CO2 asphyxiation under isoflurane anesthesia. Blood was collected by cardiac puncture and a full biodistribution performed. Organs were cleaned from blood, weighed and the activity determined using a calibrated gamma counter (Packard Cobra II Auto-gamma counter, Perkin Elmer, Waltham, MA, USA) using three energy windows: 60-120 keV (window A), 180-260 keV (window B), and 400-480 keV (window C). Counting was performed after 6 hours post-sacrifice to ensure equilibrium of the ^225Ac decay chain. Counts were decay corrected from the time of sacrifice and total organ weights were used for the calculation of injected dose per gram of tissue (% ID/g). No differences were noted between the data calculated by three different windows; therefore, the biodistributions are reported using the data acquired using window A. The inventors evaluated biodistribution of ^225Ac-crown-αMSH in mice bearing B16F10 tumors at 2 h post-injection (p.i.) in two separate studies using a total of 5 groups of mice (Table 3). In the first study, three conditions were evaluated: ^225Ac-crown-αMSH prepared the day before (18 h) (A, FIG. 22, right bars), same day (4 h) (B), or same day (4 h) with Sep-Pak purification (C); in the second study the inventors compared 225Ac-crown-αMSH labelled 4 hours before with Sep-Pak purification and with the introduction of 0.1 M L-ascorbate (D, FIG. 22, left bars), or ^225Ac-crown-αMSH prepared 18 hours prior with L-ascorbate (E).

Turning to `CCCC[C@H](NC(=O)CN1CCC(NC(=O)CN2CCOCCN(CC(=O)O)CCN(CC(=O)O)CCOCCN(CC(=O)O)CC2)CC1)C(=O)N[C@H]1CC(=O)NCCCC[C@@H](C(N)=O)NC(=O)[C@H](Cc2c[nH]c3ccccc23)NC(=O)[C@H](CCCNC(=N)N)NC(=O)[C@@H](Cc2ccccc2)NC(=O)[C@H](Cc2c[nH]cn2)NC1=O` [^225Ac-crown-αMSH, metal not drawn], the “transmetallation on HPLC” value in data set [1] is 64%. The tissue uptake at 2 h was found to be 1.82 %ID/g in “in vivo” (20 kBq, Biodistribution: Bone) and 12.7 ± 2.31 %ID/g in the data set “in vivo” (tumor uptake). Moreover, the tissue to tissue ratio at 2 h in the data set “in vivo” (tumor to blood ratio) was found to be 85.4 ± 46.8; in “in vivo” (tumor to bone ratio) it was 63.5 ± 13.2; in “in vivo” (tumor to kidneys ratio), 2.8 ± 0.98.

In general, tissue uptake refers to the share of the injected amount in each gram of the tissue.
